This note sets out measurements from article doi:10.1101/2021.03.08.434320.

The experiment has as its target H3K9me2 peptide (ITC). The experiment in a line: ITC.

On to “Arabidopsis thaliana AGDP3 AGD1-4 (1-290) (domain or fragment)”, for which the fold decrease of binding in pH 6.0 against pH 7.5 is 5 fold and the stoichiometry N (as a rule, the number of molecules, sites or subunits per partner or assembly) is 1.
